Biological target: the molecule itself
Test: ESI-MS; peptide 100 uM in 10 mM borate buffer pH 9, incubated with compound 2 (1:10) for 0 h (UV-irradiated) or 24 h (not irradiated), diluted in 15 mM ammonium acetate

B1: nucleophosmin 1 (NPM1) 264-277, second helix (H2) of the C-terminal domain (peptide)
peptide: Ac-VEAKFINYVKNCFR-NH2
notes: nucleophosmin 1 (NPM1), helix H2 of the C-terminal domain, residues 264-277; By ESI-MS the peptide is present as a monomer and as a disulfide-bridged dimer; also called NMP1_(264–277); NPM1_(264–277)(M); source: synthetic peptide (SPPS), treated with HFIP, purified by RP-HPLC
**Q.** For B1, which “stoichiometry N” value is on record?
**A.** 2

Source: PMC7464691, “Modulation of Amyloidogenic Peptide Aggregation by Photoactivatable CO-Releasing Ruthenium(II) Complexes” (Pharmaceuticals, 2020)
